According to article PMC2748697, “Capzb2 Interacts with β-Tubulin to Regulate Growth Cone Morphology and Neurite Outgrowth” (PLoS Biology, 2009):

Molecular target: T1, GST-Capza2 (mouse, UniProt P47754 1-286)
T1 construct: Capza2, α2 subunit of F-actin capping protein, from E17 mouse cDNA; primers run from the start codon (atg gcg gat ctg) to the stop codon; pGEX-4T-2 vector; The methods of the native gel say 'Capza2', the legend 'GST-Capza2'; also called α2-subunit; the other CP subunit; source: E. coli BL21-DE3 or ArcticExpress (DE3)RP, purified (glutathione sepharose)
Test: native gel or EMSA; 1 µM GST-Capzb2 or GST-Capzb2Δ106–140 with 1 µM GST-Capza2, 10 min at 4°C, 4%–20% Tris-glycine native gel, bands excised and identified by Western blot
Conditions: both partners purified

binding result: binds
B1: GST-Capzb2Δ106–140 (natural protein, mouse, UniProt P47757-2 1-272, looked up)
chain: MSDQQLDCALDLMRRLPPQQIEKNLSDLIDLVPSLCEDLLSSVDQPLKIARDKVVGKDYLLCDYNRDGDSYRSPWSNKYDPPLEDGAMPSARLRKLEVEANNAFDSKKIKGCWDSIHVVEVQEKSSGRTAHYKLTSTVMLWLQTNKSGSGTMNLGGSLTRQMEKDETVSDCSPHIANIGRLVEDMENKIRSTLNEIYFGKTKDIVNGLRSVQTFADKSKQEALKNDLVEALKRKQQC
notes: pGEX-4T-2 vector; also called deletion mutant; source: E. coli BL21-DE3 or ArcticExpress (DE3)RP, purified (glutathione sepharose)
